Measurements taken from paper doi:10.1101/838888.

Biological target: superfolder GFP with strained-cyclooctyne pyrrolysine at residue 204 (sfGFP^204SCO) (Aequorea victoria) [GFP: P42212]
Assay: FRET or BRET

FRET efficiency: 86.8%
Substance: Venus with p-azido-L-phenylalanine at residue 204 (Venus^204azF) (from UniProt P42212 2-238)
